Source: publication PMC11601812, “Structural proteomics defines a sequential priming mechanism for the progesterone receptor” (Research Square, 2024)

B1: progesterone receptor isoform A (PR-A), full-length, Strep II tagged (receptor, human, UniProt P06401-2 1-769, looked up)
chain: MSRSGCKVGDSSGTAAAHKVLPRGLSPARQLLLPASESPHWSGAPVKPSPQAAAVEVEEEDGSESEESAGPLLKGKPRALGGAAAGGGAAAVPPGAAAGGVALVPKEDSRFSAPRVALVEQDAPMAPGRSPLATTVMDFIHVPILPLNHALLAARTRQLLEDESYDGGAGAASAFAPPRSSPCASSTPVAVGDFPDCAYPPDAEPKDDAYPLYSDFQPPALKIKEEEEGAEASARSPRSYLVAGANPAAFPDFPLGPPPPLPPRATPSRPGEAAVTAAPASASVSSASSSGSTLECILYKAEGAPPQQGPFAPPPCKAPGASGCLLPRDGLPSTSASAAAAGAAPALYPALGLNGLPQLGYQAAVLKEGLPQVYPPYLNYLRPDSEASQSPQYSFESLPQKICLICGDEASGCHYGVLTCGSCKVFFKRAMEGQHNYLCAGRNDCIVDKIRRKNCPACRLRKCCQAGMVLGGRKFKKFNKVRVVRALDAVALPQPVGVPNESQALSQRFTFSPGQDIQLIPPLINLLMSIEPDVIYAGHDNTKPDTSSSLLTSLNQLGERQLLSVVKWSKSLPGFRNLHIDDQITLIQYSWMSLMVFGLGWRSYKHVSGQMLYFAPDLILNEQRMKESSFYSLCLTMWQIPQEFVKLQVSQEEFLCMKVLLLLNTIPLEGLRSQTQFEEMRSSYIRELIKAIGLRQKGVVSSSQRFYQLTKLLDNLHDLVKQLHLYCLNTFIQSRALSVEFPEMMSEVIAAQLPKILAGMVKPLLFHKK
notes: Progesterone receptor isoform PR-A, human; N-terminal truncation (missing aa 1-164) of full-length PR-B; no cleavage step is described and the DSF methods call the purified proteins SII-tagged; Carries the steroid R5020 (agonist) or RU486 (antagonist) according to the assay; Monomer without DNA, dimer on PRE DNA by SEC-MALS; The reporter-assay plasmids carry hPGR NM_000926.4 and NM_001202474.3; …
B2: progesterone receptor isoform B (PR-B), full-length, Strep II tagged (receptor, human, UniProt P06401 1-933, looked up)
chain: MTELKAKGPRAPHVAGGPPSPEVGSPLLCRPAAGPFPGSQTSDTLPEVSAIPISLDGLLFPRPCQGQDPSDEKTQDQQSLSDVEGAYSRAEATRGAGGSSSSPPEKDSGLLDSVLDTLLAPSGPGQSQPSPPACEVTSSWCLFGPELPEDPPAAPATQRVLSPLMSRSGCKVGDSSGTAAAHKVLPRGLSPARQLLLPASESPHWSGAPVKPSPQAAAVEVEEEDGSESEESAGPLLKGKPRALGGAAAGGGAAAVPPGAAAGGVALVPKEDSRFSAPRVALVEQDAPMAPGRSPLATTVMDFIHVPILPLNHALLAARTRQLLEDESYDGGAGAASAFAPPRSSPCASSTPVAVGDFPDCAYPPDAEPKDDAYPLYSDFQPPALKIKEEEEGAEASARSPRSYLVAGANPAAFPDFPLGPPPPLPPRATPSRPGEAAVTAAPASASVSSASSSGSTLECILYKAEGAPPQQGPFAPPPCKAPGASGCLLPRDGLPSTSASAAAAGAAPALYPALGLNGLPQLGYQAAVLKEGLPQVYPPYLNYLRPDSEASQSPQYSFESLPQKICLICGDEASGCHYGVLTCGSCKVFFKRAMEGQHNYLCAGRNDCIVDKIRRKNCPACRLRKCCQAGMVLGGRKFKKFNKVRVVRALDAVALPQPVGVPNESQALSQRFTFSPGQDIQLIPPLINLLMSIEPDVIYAGHDNTKPDTSSSLLTSLNQLGERQLLSVVKWSKSLPGFRNLHIDDQITLIQYSWMSLMVFGLGWRSYKHVSGQMLYFAPDLILNEQRMKESSFYSLCLTMWQIPQEFVKLQVSQEEFLCMKVLLLLNTIPLEGLRSQTQFEEMRSSYIRELIKAIGLRQKGVVSSSQRFYQLTKLLDNLHDLVKQLHLYCLNTFIQSRALSVEFPEMMSEVIAAQLPKILAGMVKPLLFHKK
notes: Progesterone receptor isoform PR-B, human; full-length open reading frame (residues up to 933 are named), codon-optimised for insect cells; no cleavage step is described and the DSF methods call the purified proteins SII-tagged; Carries R5020 or RU486 according to the assay; In the functional row PR-B was expressed from a VectorBuilder plasmid in 293T cells (hRluc:P2A:hPGR), not this Sf9 protein; …
B3: steroid receptor coactivator 3 (SRC3), full-length, Strep II tagged (natural protein)
chain: not shown
notes: full-length open reading frame, codon-optimised for insect cells; NR-boxes at 685-689, 738-742 and 1057-1061; no cleavage step is described; source: Sf9 insect cells (baculovirus), purified (StrepTrap XT, SEC); not shown: Strep II, N-terminal, kept

What was measured:
[1] = molecular target: B3; assay: HDX-MS; differential, R5020-bound PR vs PR:SRC3 and SRC3 vs PR:SRC3, with and without PRE DNA (2:1:1 PR:SRC3:PRE), sequential addition; 4 C, 20 mM Hepes, 200 mM NaCl, 1 M urea, 1 mM TCEP, 5% glycerol, pD 7.9; details: both partners purified
[2] = molecular target: the molecule itself; assay: SEC-MALS; R5020-bound PR mixed with 32-mer PRE DNA; Superose 6 Increase; 20 mM Hepes, 50 mM NaCl, 5% glycerol, 1 mM TCEP, with or without 1 M urea, pH 7.5
[3] = molecular target: T1, histone acetyltransferase p300, full-length, Strep II tagged (human, UniProt Q09472 1-2414); assay: cross-linking; DSSO XL-MS of R5020-bound PR:SRC3:p300, with and without PRE DNA (PR:SRC3:p300:DNA 2:1:1:1.5); PR 5 uM, 3 mM DSSO, 25 C 45 min; 20 mM Hepes pH 7.5, 200 mM NaCl, 1 M urea, 1 mM TCEP, 5% glycerol; details: both partners purified
T1 construct: Histone acetyltransferase p300, human; full-length open reading frame, codon-optimised for insect cells; no cleavage step is described; source: Sf9 insect cells (baculovirus), purified (StrepTrap XT, SEC); not shown: Strep II, N-terminal, kept

[4] = molecular target: T1, histone acetyltransferase p300, …; assay: cross-linking; DSSO XL-MS of two proteins (R5020-bound PR with SRC3, or PR-B with p300 without SRC3), with and without PRE DNA; PR 5 uM, 3 mM DSSO, 25 C 45 min; 20 mM Hepes pH 7.5, 200 mM NaCl, 1 M urea, 1 mM TCEP, 5% glycerol; details: both partners purified
[5] = molecular target: the molecule itself; assay: SEC-MALS; each protein alone, PR bound to agonist R5020, no DNA; Superose 6 Increase; 20 mM Hepes, 50 mM NaCl, 5% glycerol, 1 mM TCEP, with or without 1 M urea, pH 7.5; about 20-100 ug injected
[6] = molecular target: B1; assay: SEC-MALS; R5020-bound PR-A, SRC3 and p300 mixed with PRE DNA; Superose 6 Increase; 20 mM Hepes, 50 mM NaCl, 5% glycerol, 1 mM TCEP, with or without 1 M urea, pH 7.5; details: both partners purified
[7] = molecular target: T1, histone acetyltransferase p300, …; assay: HDX-MS; differential, R5020-bound PR:SRC3 vs PR:SRC3:p300, with and without PRE DNA, sequential addition (DNA, PR, SRC3, p300); 4 C, 20 mM Hepes, 200 mM NaCl, 1 M urea, 1 mM TCEP, 5% glycerol, pD 7.9; details: both partners purified

T1 sequence (Q09472 whole entry): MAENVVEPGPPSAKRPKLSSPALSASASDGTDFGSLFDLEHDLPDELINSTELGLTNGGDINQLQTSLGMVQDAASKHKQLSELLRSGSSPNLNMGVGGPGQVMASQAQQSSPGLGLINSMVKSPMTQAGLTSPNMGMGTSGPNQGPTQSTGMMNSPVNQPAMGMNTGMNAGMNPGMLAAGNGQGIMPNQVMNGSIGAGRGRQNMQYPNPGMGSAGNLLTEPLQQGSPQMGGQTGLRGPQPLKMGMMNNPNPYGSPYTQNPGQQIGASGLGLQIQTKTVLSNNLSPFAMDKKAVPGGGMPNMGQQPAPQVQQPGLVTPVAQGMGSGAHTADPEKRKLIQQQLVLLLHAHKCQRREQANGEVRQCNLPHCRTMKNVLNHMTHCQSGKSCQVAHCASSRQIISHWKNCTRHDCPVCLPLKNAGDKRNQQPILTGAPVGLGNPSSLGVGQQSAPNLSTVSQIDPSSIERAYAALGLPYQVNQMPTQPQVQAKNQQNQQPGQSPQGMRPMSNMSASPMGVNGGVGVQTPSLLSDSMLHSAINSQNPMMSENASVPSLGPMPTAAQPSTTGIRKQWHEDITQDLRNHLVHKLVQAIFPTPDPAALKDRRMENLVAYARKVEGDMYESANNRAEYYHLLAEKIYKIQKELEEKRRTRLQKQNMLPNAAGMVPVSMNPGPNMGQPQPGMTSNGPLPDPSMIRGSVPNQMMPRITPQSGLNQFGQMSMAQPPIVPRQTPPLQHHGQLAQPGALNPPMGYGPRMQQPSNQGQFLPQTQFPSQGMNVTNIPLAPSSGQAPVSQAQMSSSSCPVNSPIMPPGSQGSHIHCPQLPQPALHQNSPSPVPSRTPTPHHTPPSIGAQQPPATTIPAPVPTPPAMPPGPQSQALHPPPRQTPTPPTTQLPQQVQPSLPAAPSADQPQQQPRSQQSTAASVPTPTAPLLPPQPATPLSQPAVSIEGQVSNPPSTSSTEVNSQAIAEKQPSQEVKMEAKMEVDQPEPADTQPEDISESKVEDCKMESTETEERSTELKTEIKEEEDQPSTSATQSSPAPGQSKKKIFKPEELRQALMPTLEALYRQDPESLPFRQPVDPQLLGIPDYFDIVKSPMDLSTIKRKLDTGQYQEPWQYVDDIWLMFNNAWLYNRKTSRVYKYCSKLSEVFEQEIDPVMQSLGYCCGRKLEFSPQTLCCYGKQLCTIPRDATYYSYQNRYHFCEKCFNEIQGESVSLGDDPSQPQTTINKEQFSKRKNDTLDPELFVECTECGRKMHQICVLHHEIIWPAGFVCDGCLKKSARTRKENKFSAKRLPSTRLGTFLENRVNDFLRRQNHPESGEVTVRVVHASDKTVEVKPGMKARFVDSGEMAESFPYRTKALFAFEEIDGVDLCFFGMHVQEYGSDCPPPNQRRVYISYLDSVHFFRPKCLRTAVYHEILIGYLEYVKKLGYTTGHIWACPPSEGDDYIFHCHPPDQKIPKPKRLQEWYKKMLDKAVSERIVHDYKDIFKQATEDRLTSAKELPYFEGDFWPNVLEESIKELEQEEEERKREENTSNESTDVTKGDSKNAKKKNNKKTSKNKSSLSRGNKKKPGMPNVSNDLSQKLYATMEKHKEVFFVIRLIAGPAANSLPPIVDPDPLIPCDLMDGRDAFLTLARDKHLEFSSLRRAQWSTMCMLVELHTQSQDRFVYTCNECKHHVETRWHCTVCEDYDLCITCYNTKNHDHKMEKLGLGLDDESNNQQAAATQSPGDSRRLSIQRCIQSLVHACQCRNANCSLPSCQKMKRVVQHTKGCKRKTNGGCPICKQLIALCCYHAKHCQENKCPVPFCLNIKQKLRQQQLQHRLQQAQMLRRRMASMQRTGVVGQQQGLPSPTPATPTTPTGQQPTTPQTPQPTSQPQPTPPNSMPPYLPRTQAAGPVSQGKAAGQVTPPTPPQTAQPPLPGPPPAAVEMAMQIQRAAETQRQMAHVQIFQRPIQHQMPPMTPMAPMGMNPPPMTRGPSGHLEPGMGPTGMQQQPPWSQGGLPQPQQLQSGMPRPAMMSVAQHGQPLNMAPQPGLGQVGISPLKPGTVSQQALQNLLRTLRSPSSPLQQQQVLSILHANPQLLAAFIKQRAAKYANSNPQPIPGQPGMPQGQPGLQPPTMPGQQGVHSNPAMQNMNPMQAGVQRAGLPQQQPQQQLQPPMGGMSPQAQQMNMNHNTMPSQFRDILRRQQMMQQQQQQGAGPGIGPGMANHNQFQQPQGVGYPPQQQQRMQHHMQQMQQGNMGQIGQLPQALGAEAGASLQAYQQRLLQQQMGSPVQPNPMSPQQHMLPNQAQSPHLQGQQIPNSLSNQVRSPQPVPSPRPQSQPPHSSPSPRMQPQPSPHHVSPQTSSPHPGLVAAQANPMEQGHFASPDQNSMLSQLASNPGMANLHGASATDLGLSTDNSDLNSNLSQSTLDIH

Binder	binding result [1]	stoichiometry N [2]	binding result [3]	binding result [4]	stoichiometry N [5]	stoichiometry N [6]	binding result [7]
B1	binds	2	binds				
B2	binds			binds	2		
B3						0.5	binds
